Drawing on PMC8967028, this text covers koff for one substance.

The experiment concerns the target SARS-CoV-1 spike (S) receptor binding domain (SARS-CoV-1). Put plainly: SPR.

parental VHH-72-Fc (Fc fusion) displayed a koff of 0.00021 s⁻¹.

Broadly, the koff is the first-order rate constant of dissociation. A higher koff goes with a short-lived complex.
